The supplement of paper PMC7877785
± gives the uncertainty stated by the source.

Experiment: self-splicing fitness, log relative to wild type (ln ratio); higher = more splicing; Tetrahymena group I intron in knt gene, E. coli kanamycin selection, DiMSum; sequences stand for … in CUCUCU…GGAGGGAAAAGUUAUCAGGCAUGCACCUGGUAGCUAGUCUUUAAACCAAUAGAUUGCAUCGGUUUAAAAGGCAAGACCGUCAAAUUGCGGGAAAGGGGUCAACAGCCGUUCAGUACCAAGUCUCAGGGGAAACUUUGAGAUGGCCUUGCAAAGGGUAUGGUAAUAAGCUGACGGACAUGGUCCUAACCACGCAGCCAAGUCCUAAGUCAACAGAUCUUCUGUUGAUAUGGAUGCAGUUCACAGACUAAAUGUCGGUCGGGGAAGAUGUAUUCUUCUCAUAAGAUAUAGUCGGACCUCUCCUUAAUGGGAGCUAGCGGAUGAAGUGAUGCAACACUGGAGCCGCUGGGAACUAAUUUGUAUGCGAAAGUAUAUUGAUUAGUUUUGGAGUACUCGUGGUCG
In short: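 Pooled colonies went to amplicon sequencing on an Illumina HiSeq 2500 after six replicate transformations. The plates were LB agar with 100 μg/mL carbenicillin, 50 μM IPTG and 0.2% rhamnose, with or without 25 μg/mL kanamycin, incubated overnight at 37°C or 30°C. The E. coli BL21(DE3) library had all eight P1ex-region intron nucleotides randomised, the intron placed in the knt kanamycin-resistance gene on pET-22b(+). DiMSum fitness is the error-weighted combination of replicate fold changes, kanamycin against none, normalised to wild type.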

Row | Sequence | self-splicing fitness (ln) (30 °C) | self-splicing fitness (ln) (37 °C)
1 | AUUGAGCAAUAUUACGAGCC | -3.44 ± 0.26 | -2.48 ± 0.3
2 | AUUGAGCAAUAUUACGAGCU | -3.6 ± 0.37 | -1.63 ± 0.37
3 | AUUGAGCAAUAUUACGAGUU | -2.58 ± 0.14 | -2.23 ± 0.17
4 | AUUGAGCAAUAUUACGAUCG | -2.34 ± 0.34 | -1.04 ± 0.19
5 | AUUGAGCAAUAUUACGAUUA | -2.36 ± 0.23 | -2.62 ± 0.36
6 | AUUGAGCAAUAUUACGCCCU | -2.51 ± 0.24 | -0.951 ± 0.21
7 | AUUGAGCAAUAUUACGCGCA | -1.48 ± 0.16 | -1.08 ± 0.2
8 | AUUGAGCAAUAUUACGCUAC | -3.69 ± 0.37 | 
9 | AUUGAGCAAUAUUACGGAGU | -3.76 ± 0.15 | -1.86 ± 0.1
10 | AUUGAGCAAUAUUACGGCCG | -3.13 ± 0.26 | -0.636 ± 0.18
11 | AUUGAGCAAUAUUACGGCCU | -3.53 ± 0.21 | -0.674 ± 0.11
12 | AUUGAGCAAUAUUACGGCUA | -1.73 ± 0.37 | -0.81 ± 0.21
13 | AUUGAGCAAUAUUACGGGAG | -3.67 ± 0.26 | -2.33 ± 0.27
14 | AUUGAGCAAUAUUACGGUAG | -3.32 ± 0.24 | 
15 | AUUGAGCAAUAUUACGUACG | -3.25 ± 0.29 | -1.53 ± 0.26
16 | AUUGAGCAAUAUUACGUACU | -2.1 ± 0.28 | -2.57 ± 0.49
17 | AUUGAGCAAUAUUACGUAGU | -2.08 ± 0.17 | -0.638 ± 0.14
18 | AUUGAGCAAUAUUACGUAUA | -2.67 ± 0.28 | -2.98 ± 0.32
19 | AUUGAGCAAUAUUACGUGAG | -2.08 ± 0.11 | -1.97 ± 0.14
20 | AUUGAGCAAUAUUACGUGCC | -2.73 ± 0.4 | 
21 | AUUGAGCAAUAUUACGUGCG | -3.83 ± 0.24 | -2.02 ± 0.16
22 | AUUGAGCAAUAUUACGUGGC | -3.45 ± 0.16 | -3.69 ± 0.3
23 | AUUGAGCAAUAUUACGUUGA | -3.86 ± 0.37 | -3.45 ± 0.3
24 | AUUUAGCAAUAUUACGACGG | -1.79 ± 0.18 | -0.641 ± 0.16
25 | AUUUAGCAAUAUUACGACUC | -0.866 ± 0.14 | 0.207 ± 0.16

Row | Sequence | self-splicing fitness (ln) (30 °C) | self-splicing fitness (ln) (37 °C)
26 | AUUUAGCAAUAUUACGACUG | -2 ± 0.17 | -1.41 ± 0.16
27 | AUUUAGCAAUAUUACGAGAC | -2.44 ± 0.39 | 
28 | AUUUAGCAAUAUUACGAGUU | -2.58 ± 0.3 | -0.85 ± 0.23
29 | AUUUAGCAAUAUUACGAUGA | -1.8 ± 0.14 | -0.68 ± 0.15
30 | AUUUAGCAAUAUUACGCCCC | -0.747 ± 0.37 | 
31 | AUUUAGCAAUAUUACGCCGU | -1.2 ± 0.2 | -1.44 ± 0.22
32 | AUUUAGCAAUAUUACGCUGA | -1.32 ± 0.19 | -2.44 ± 0.3
33 | AUUUAGCAAUAUUACGCUUA | -1.99 ± 0.17 | -0.321 ± 0.19
34 | AUUUAGCAAUAUUACGCUUG | -0.566 ± 0.088 | -0.134 ± 0.12
35 | AUUUAGCAAUAUUACGGAAC | -3.03 ± 0.3 | -2.02 ± 0.31
36 | AUUUAGCAAUAUUACGGCGA | -0.579 ± 0.12 | 0.144 ± 0.11
37 | AUUUAGCAAUAUUACGGCUA | -0.795 ± 0.13 | 0.255 ± 0.12
38 | AUUUAGCAAUAUUACGUACA | -1.7 ± 0.15 | -1.39 ± 0.13
39 | AUUUAGCAAUAUUACGUAGG | -2.98 ± 0.14 | -2.02 ± 0.16
40 | AUUUAGCAAUAUUACGUAGU | -1.54 ± 0.079 | -0.851 ± 0.1
41 | AUUUAGCAAUAUUACGUAUA | -2.53 ± 0.34 | -1.48 ± 0.21
42 | AUUUAGCAAUAUUACGUCGG | -3.82 ± 0.4 | -3.18 ± 0.32
43 | AUUUAGCAAUAUUACGUGAG | -1.6 ± 0.083 | -0.846 ± 0.13
44 | AUUUAGCAAUAUUACGUUGU | -3.01 ± 0.19 | -2.82 ± 0.27
45 | AUUUAGCAAUAUUACGUUUC | -2.86 ± 0.27 | -1.91 ± 0.34
46 | CAAAAGCAAUAUUACGAAUC | -4.86 ± 0.38 | -2.71 ± 0.21
47 | CAAAAGCAAUAUUACGACAC | -3.37 ± 0.19 | -1.01 ± 0.15
48 | CAAAAGCAAUAUUACGAGAU | -3.7 ± 0.2 | -2.21 ± 0.16
49 | CAAAAGCAAUAUUACGAGUU | -3.02 ± 0.15 | -2.46 ± 0.16
50 | CAAAAGCAAUAUUACGCAAC | -2.59 ± 0.16 | -2.53 ± 0.27
